The values that follow come from US20050031628A1.

Experiment [1] addresses antigen binding receptors on maturing human monocyte-derived dendritic cells. Description: flow cytometry, maturing dendritic cells loaded with 10 µg/ml HBV S1/S2. On the technique in general: A flow cytometer gives signals particle by particle.
Experiment [2] has the same target. As to the kind of experiment: flow cytometry, 90 µg/mL, 1 h at 4 C, dendritic cells of day 1 of culture, F(ab')2 goat anti-mouse Alexa-488.
For experiment [3] the target is unchanged. Description: flow cytometry, 90 µg/mL, 1 h at 4 C, dendritic cells of day 2 of culture, F(ab')2 goat anti-mouse Alexa-488.
Experiment [4] has the same target. As to the kind of experiment: flow cytometry, 90 µg/mL, 1 h at 4 C, dendritic cells of day 3 of culture, F(ab')2 goat anti-mouse Alexa-488.
Experiment [5] has the same target. As to the kind of experiment: flow cytometry, 90 µg/mL, 1 h at 4 C, dendritic cells of day 4 of culture, F(ab')2 goat anti-mouse Alexa-488.

In experiment [1], HBV S1/S2 expressed in E. coli displayed a % Specific positive cells of 12.2% and a Relative MFI of 3.9.

In experiment [1], “HBV S1/S2 expressed in High Five insect cells (baculovirus)” registered a % Specific positive cells of 69.9% and a Relative MFI of 40.3.

murine IgG2a (G155-178) (antibody): the % Specific positive dendritic cells in experiment [2] amounted to 28%; in experiment [3], 17.4%; in experiment [4], 14.3%; in experiment [5], 13.5%.
